Experimental findings from patent US12674174B2, “Protoporphyrinogen oxidase (PPO) resistance plant” (PLANTARC BIO LTD., priority 2022, dated 2026) are described below.

Assay [1] concerns transgenic Arabidopsis plants. The assay is classed as in vivo. Conditions: for level of resistance against Aurora (in words): Aurora 0.01% to 0.5%, compared to control plants; for level of resistance to Strike, more tolerant to treatment as compared to control plants: 5 orders of magnitude. From the text: (SEQ ID NO: 8 was cloned from SEQ ID NO: 1, SEQ ID NO: 9 was cloned from SEQ ID NO: 2, SEQ ID NO: 10 was cloned from SEQ ID NO: 3, SEQ ID NO: 11 was cloned from SEQ ID NO: 4, SEQ ID NO: 12 was cloned from SEQ ID NO: 5, SEQ ID NO: 13 was cloned from SEQ ID NO: 6 SEQ ID NO: 14 was cloned from SEQ ID NO: 7). […] FIG. 1B summarizes the results of the three experiments described hereinabove.

Assay [2] relates to Arabidopsis plants. As to conditions: yes/no; for High concentration herbicide tolerance: Table 1; for Herbicide tolerance: Table 2, FIG. 6C legend: Star 1.25 kg/hectare.

B1: SEQ ID NO: 8: PPO from Aspergillus sp. fused to cTP. Chimeric Protein; cloned from SEQ ID NO: 1 (protein)
chain: MELSLLRPTTQSLLPSFSKPNLRLNVYKPLRLRCSVAGGMRLPCASSRVFRQVRAPLALLSRGQRHAVHTKQFDAAVIGGGITGLTAAYQLSRDPSCSKVTLYEKSPHLGGWLSSEQIPVPGGHVVFEYGPRTLRTSSPSCLPMMDLIMNLDLLDDVLICDKKSPAAQNRYIYYPDHLVRLPFPPTEGLLKTAWTLLMEPLFETFLYSAIFEKPKRAENTHILSRDESVADFVSRRFSPKISENLASAVMAGIFAGDVNRLSAEMAIGYVRELEKRYGSIVDGMMTQRASEMRAMPMDELLALESVAVPSHSDDRYWKSLRAVVSDASVLTLKNGLGQLTDAMAAQLRSSRNVEVVTGTEVTSLSQNPKTQDLTIGFGKNESKTHNRVIATHAPSSLARQIQNTKVGVVPSDTIRDLGQNNYAVTVMVVNLYYEDPDLVPVEGFGYLLPSSVPFEQNPERALGVIFGSQSSEGQDTAPGTKLTVMMGGHLWDGWSESDYPDPDKAIEMAQALLHRHLGIKTAPSVARARLLRDAIPQYTVGHLSRMKELSHSVRSDFHKRLTLAGAWYGTVGIGVVDCIRQGYLASSYGVGSKKLGPGNSRRPWTKHDFHNWELEGGIATSPVRLDNVHVTERQHY
On to B1, for which, in assay [1], the “level of resistance against Aurora (in words)” value is given as “very high levels of resistance”. In addition, in assay [1] (Strike 0.01% to 1%), the “level of resistance to Strike, more tolerant to treatment as compared to control plants” value (“level of resistance … compared to control plants” below) was “about 10^5”.

B2: SEQ ID NO: 9: PPO from Aspergillus sp. fused to cTP. Chimeric Protein; cloned from SEQ ID NO: 2 (protein)
chain: MELSLLRPTTQSLLPSFSKPNLRLNVYKPLRLRCSVAGGMRLPCASSRAFRQVRAPLALLHRGQRHAVHTKQFDAAVIGGGITGLTAAYQLSRDPSCSKVTLYEKSSHLGGWLSSEQIPVPGGHVVFEYGPRTLRTSSPSCLPMMDLIMNLDLLDDVLICDKKSPAAQNRYIYYPDHLVRLPFPPTEGLLKTAWTLLMEPLFETFLYSAIFEKPKRAENTHILSRDESVADFVSRRFSPKISENLASAVMAGIFAGDVNRLSAEMAIGYVRELEKRYGSIVDGMMTQRASEMRAMPMDELLALESVAVPSHSDDRYWKSLRAVVTDASVLTLKNGLGQLTDAMAAQLRSSRNVEVVTGTEVTSLSQNPKTQDLTIGFGKNESRTHNRVIATHAPSSLARQIQNTKVGVVPSDTIRDLGQNNYAVTVMVVNLYYEDPDLVPVEGFGYLLPSSVPFEQNPERALGVIFGSQSSEGQDTAPGTKLTVIMGGHLWDGWSESDYPDPDKAIEMAQALLHRHLGIKTAPSVARARLLRDAIPQYTVGHLSRMKELSHSVRSDFHKRLTLAGAWYGTVGIGVVDCIRQGYLASSYGVGSKKLGPGNSRRPWTKHDFHNWELEGGIATSPVRFDNVHVTERQHY
For B2, the “level of resistance against Aurora (in words)” value in assay [1] is “very high levels of resistance”. Also, in assay [1] (Strike 0.01% to 1%), the “level of resistance … compared to control plants” value was “about 10^5”.

B3: SEQ ID NO: 1: PPO from Aspergillus sp. Protein. (protein, listed as Aspergillus sp.)
chain: MRLPCASSRVFRQVRAPLALLSRGQRHAVHTKQFDAAVIGGGITGLTAAYQLSRDPSCSKVTLYEKSPHLGGWLSSEQIPVPGGHVVFEYGPRTLRTSSPSCLPMMDLIMNLDLLDDVLICDKKSPAAQNRYIYYPDHLVRLPFPPTEGLLKTAWTLLMEPLFETFLYSAIFEKPKRAENTHILSRDESVADFVSRRFSPKISENLASAVMAGIFAGDVNRLSAEMAIGYVRELEKRYGSIVDGMMTQRASEMRAMPMDELLALESVAVPSHSDDRYWKSLRAVVSDASVLTLKNGLGQLTDAMAAQLRSSRNVEVVTGTEVTSLSQNPKTQDLTIGFGKNESKTHNRVIATHAPSSLARQIQNTKVGVVPSDTIRDLGQNNYAVTVMVVNLYYEDPDLVPVEGFGYLLPSSVPFEQNPERALGVIFGSQSSEGQDTAPGTKLTVMMGGHLWDGWSESDYPDPDKAIEMAQALLHRHLGIKTAPSVARARLLRDAIPQYTVGHLSRMKELSHSVRSDFHKRLTLAGAWYGTVGIGVVDCIRQGYLASSYGVGSKKLGPGNSRRPWTKHDFHNWELEGGIATSPVRLDNVHVTERQHY
For B3, the “level of resistance against Aurora (in words)” value in assay [1] is on record as “very high levels of resistance”. Also, in assay [1] (Strike 0.01% to 1%), the “level of resistance … compared to control plants” value is on record as “about 10^5”.

B4: SEQ ID NO: 102: Glycine max protoporphyrinogen oxidase 1, chloroplastic, XP_003536005.1 (protein)
chain: MVSVFNEILFPPNQTLLRPSLHSPTSFFTSPTRKFPRSRPNPILRCSIAEESTASPPKTRDSAPVDCVVVGGGVSGLCIAQALATKHANANVVVTEARDRVGGNITTMERDGYLWEEGPNSFQPSDPMLTMVVDSGLKDELVLGDPDAPRFVLWNRKLRPVPGKLTDLPFFDLMSIGGKIRAGFGALGIRPPPPGHEESVEEFVRRNLGDEVFERLIEPFCSGVYAGDPSKLSMKAAFGKVWKLEKNGGSIIGGTFKAIQERNGASKPPRDPRLPKPKGQTVGSFRKGLTMLPDAISARLGNKVKLSWKLSSISKLDSGEYSLTYETPEGVVSLQCKTVVLTIPSYVASTLLRPLSAAAADALSKFYYPPVAAVSISYPKEAIRSECLIDGELKGFGQLHPRSQGVETLGTIYSSSLFPNRAPPGRVLLLNYIGGATNTGILSKTDSELVETVDRDLRKILINPNAQDPFVVGVRLWPQAIPQFLVGHLDLLDVAKASIRNTGFEGLFLGGNYVSGVALGRCVEGAYEVAAEVNDFLTNRVYK
modifications: Glycine max
In the case of B4, in assay [2], the “High concentration herbicide tolerance” value is reported as “no”.

B5: SEQ ID NO: 98: PPO from Hesseltinella sp. Protein. (protein, listed as Hesseltinella sp.)
chain: MPRSIVVLGGGISGLSAAYYLSRLVPQAHIRLIESNKRAGGFIKTQQVNDHLIFEAGPRTLRPHGTSGTVLLDMIKDLDLSPLLVNIPKSHPSAQHRYIEYHGQINQLPSGLADMLLHSPPIMDSVITAGMREPFLARASTTKDESLYNFMERRFNEHTALNLMGAMAHGIYAGDAKQLSVHSTFPILAACEQEYGSVVLGMLSGKLSVESPRERQLADACRAKDPEWFKQMQQSSVLGFLPGLGALPSRLTQFLSSQPNVSMQLGETVSRLDGQSSHQIEITTSQGQIYHADHIVSTLPSHALARISMPTTTSLPHLTHNPSADVALVNLAYEKCKVKPGLDGFGFLTPHADTMPPSQFPGLLGMIFDSNSLGVQDQDSNMVRFTAMIGGADWNLAFGSLHDNDAISSKALTMATAALSKYLEIHESPAHYHCRILRQCIPQYLVGHRQRMNELHAALQHSFGHTMSVTGASYLGVSVPDCIKHSRMLIEDLVDTGALGSKQAVITGLEKVTLPMYYKL
Consider B5, for which, in assay [2], the “High concentration herbicide tolerance” value is “yes” and the Herbicide tolerance entry is on record as “yes”.

B6: SEQ ID NO: 100: PPO from Rhizophagus sp. Protein. (protein, listed as Rhizophagus sp.)
chain: MSSPNNFVILGGGISGLSAAWYLSRYAPSTTKILVLEGSNRFGGWIKSKRVGQHKILFEQGPRTLRPNGIGGSVVLDMVNRLNLIPSLHAVTKDDDAAKDRFIYYPDKIVKLPGTSLLSSMKSVFTNNFLLKSIPSILFEPFIKPARNYHDETIHEFISRRFSKSISDILISALIHGIYAGDINKLSIRSTFTRLYNLEQKYGSVIKGLLMSNKEEFLSQQDKYLLKIINDENKDFLSIFKNVSLYSFKDGIEQLSSAIVNDLKNKENVQLKTNNQVTKLEFGENVKIFTNEAVYEADHVISALPSRALYNILPEKDVLPHLNYNPSVSVATINLAYAHPKILPVKGFGYLIPQSTPHNPYHVLGVVFDSNAMPLQDEPSRTYTKLTIMMGGHYFNSISEKDDFPKKEILLQQSIEILEKHLGIYSTPLYYLVDIQKNCIPQYYVGHYSRLKELHYAIKNHYANRLSVTGASYWGISINDCVLNSAKLVLNILSNSPNVVTGLEEVEIQNEHYL
In the case of B6, the Herbicide tolerance entry in assay [2] was “no”.

B7: SEQ ID NO: 10: PPO from Fusarium sp. fused to cTP. Chimeric Protein; cloned from SEQ ID NO: 3 (protein)
chain: MELSLLRPTTQSLLPSFSKPNLRLNVYKPLRLRCSVAGGMSRRRAESTAVALLSSPAKSHLQPPLRRLDGIRSLSTSSALARRRPIVACNYTQSFNNGRTFVSQAKDANIAVLGGGLTGLTAAYYLAKKLPSTAKITLYESSDRLGGWIKTDRVPVDIEGKSGTLSFERGARSLSSLVGNTFRFDDLVLYDLALDLGLAINSPSQQPRYIYYPDHLVPTPPNISIFDMLREPLYLEIIGASLGLGINSLRKRTLPSKDYSVSEWLYAVSNSRKGIGNLASAMMHGIYGGDIHKLSARCVLDRLYWGWYLPNPGLSVRPMPVAEQALLETLGQDKQIQKMALEPRSALVDFGDKGMESLPQALSAALREQPNITIKTGEAVQDVVYNKANQQVHITSSNAKDNSKHNSKVYDKVISTLSAQDIALLAGNKLPSLSTAHSVSVMTVNIWFPQENLKPPGFGYLIPNSVAPELNPEHALGVFFDSDVQTRSKDEPAGTKLFVLMGGHYYDRPDVTPPTEEEAIIQARNLLERHLGIPRDAPAYATANFARECIPQHYVGHQDRLKAAHTELTRNFGGRLAVAGGSFTRIGAVASLRAGYDAATAAKKGLEATGLEYLNDIQQFSVVATSHIPVRHFK
Consider B7, for which the “level of resistance against Aurora (in words)” value in assay [1] is listed as “not against Aurora”. In assay [1] (Strike 0.01% to 1%), the “level of resistance against Strike (in words)” value is reported as “high levels of resistance” and the “level of resistance … compared to control plants” value is given as “about 10^5”.

B8: SEQ ID NO: 101: 4IVO_B. Structure of human protoporphyrinogen IX oxidase(R59Q) [Homo sapiens] (protein, listed as Homo sapiens)
chain: MGRTVVVLGGGISGLAASYHLSRAPCPPKVVLVESSERLGGWIRSVRGPNGAIFELGPQGIRPAGALGARTLLLVSELGLDSEVLPVRGDHPAAQNRFLYVGGALHALPTGLRGLLRPSPPFSKPLFWAGLRELTKPRGKEPDETVHSFAQRRLGPEVASLAMDSLCRGVFAGNSRELSIRSCFPSLFQAEQTHRSILLGLLLGAGRTPQPDSALIRQALAERWSQWSLRGGLEMLPQALETHLTSRGVSVLRGQPVCGLSLQAEGRWKVSLRDSSLEADHVISAIPASVLSELLPAEAAPLARALSAITAVSVAVVNLQYQGAHLPVQGFGHLVPSSEDPGVLGIVYDSVAFPEQDGSPPGLRVTVMLGGSWLQTLEASGCVLSQELFQQRAQEAAATQLGLKEMPSHCLVHLHKNCIPQYTLGHWQKLESARQFLTAHRLPLTLAGASYEGVAVNDCIESGRQAAVSVLGTEPNS
For B8, in assay [2], the “High concentration herbicide tolerance” value is recorded as “no” and the Herbicide tolerance result is given as “no”.
